Test results reported in the supplement of paper PMC10126150.
± gives the standard deviation of the averaged measurements.

Tested on: ATP
Test: switch fluorescence ratio, 500 uM ATP over buffer (Cy3 cluster intensity, sum of 5 cycles each) (fold (ratio)); higher = stronger signal-on switching upon ATP binding; sequences stand for … in TCGTCGGCAGCGTCAGATGTGTATAAGAGACAGTTTTTTTTTTTTTTTTTTTTTTTTT…TC
Conditions: aptamer strand: ATP DNA aptamer (quencher-CACCTGGGGGAGTATTGCGGAGGAAGG + anchor), 100 nM annealed; ATP concentration: 500 uM
In short: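 Imaging in selection buffer was followed by imaging after 15 min with 500 uM ATP at 22 °C, for Cy3-labelled switching-strand clusters annealed to 100 nM quencher-labelled ATP aptamer on a modified Illumina MiSeq flow-cell. Five of these buffer/ATP cycles ran, separated by NaOH stripping and re-annealing. The fluorescence ratio per cluster is summed target-cycle over summed buffer-cycle Cy3 intensity, averaged per switch-domain sequence; clusters outside 100-1000 RFU were removed.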
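Further: ATP exposure 15 min at 22 °C before imaging.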

ATGGCGATTG
switch fluorescence ratio: 0.996 ± 0.0078

ATGGCGTAGT
switch fluorescence ratio: 0.975 ± 0.036

ATGGCGTCCA
switch fluorescence ratio: 0.977 ± 0.045

ATGGCTGGGG
switch fluorescence ratio: 1 ± 0.019

ATGGCTGTCA
switch fluorescence ratio: 1.012 ± 0.0012

ATGGCTTGTC
switch fluorescence ratio: 1.03 ± 0.038

ATGGGAAAAA
switch fluorescence ratio: 1.01 ± 0.014

ATGGGAACCT
switch fluorescence ratio: 1.12 ± 0.18

ATGGGAAGTC
switch fluorescence ratio: 0.992 ± 0.024

ATGGGACAGC
switch fluorescence ratio: 0.975 ± 0.033

ATGGGAGAAG
switch fluorescence ratio: 0.95776 ± 0.00073

ATGGGAGTAG
switch fluorescence ratio: 0.9562 ± 0.0062

ATGGGATCTG
switch fluorescence ratio: 0.999 ± 0.025

ATGGGCAGAT
switch fluorescence ratio: 0.994 ± 0.071

ATGGGCATGG
switch fluorescence ratio: 1.04 ± 0.072

ATGGGCATTA
switch fluorescence ratio: 1 ± 0.017

ATGGGCCCGT
switch fluorescence ratio: 1.01 ± 0.1

ATGGGCGTAC
switch fluorescence ratio: 1.03 ± 0.054

ATGGGCGTAT
switch fluorescence ratio: 1.04 ± 0.017

ATGGGCTAGC
switch fluorescence ratio: 1.009 ± 0.0014

ATGGGCTCTT
switch fluorescence ratio: 1.04 ± 0.049

ATGGGGAATT
switch fluorescence ratio: 0.995 ± 0.035

ATGGGGAGAG
switch fluorescence ratio: 1.02 ± 0.028

ATGGGGAGGC
switch fluorescence ratio: 1.05 ± 0.051

ATGGGGATGG
switch fluorescence ratio: 0.978 ± 0.033

ATGGGGCACG
switch fluorescence ratio: 0.987 ± 0.037

ATGGGGGACT
switch fluorescence ratio: 1.02 ± 0.051

ATGGGGGCCT
switch fluorescence ratio: 1.02 ± 0.048

ATGGGGGGAC
switch fluorescence ratio: 0.987 ± 0.027

ATGGGGGGAG
switch fluorescence ratio: 0.997 ± 0.025

ATGGGGGGG
switch fluorescence ratio: 1.01 ± 0.014

ATGGGGGGGA
switch fluorescence ratio: 1.02 ± 0.027

ATGGGGGTGT
switch fluorescence ratio: 1.004 ± 0.0059

ATGGGGTAAC
switch fluorescence ratio: 0.969 ± 0.011

ATGGGGTCGG
switch fluorescence ratio: 1 ± 0.035

ATGGGGTGGT
switch fluorescence ratio: 0.993 ± 0.025

ATGGGGTT
switch fluorescence ratio: 0.992 ± 0.0053

ATGGGGTTCG
switch fluorescence ratio: 0.993 ± 0.035

ATGGGTACTG
switch fluorescence ratio: 0.963 ± 0.022

ATGGGTAGGG
switch fluorescence ratio: 0.967 ± 0.017

ATGGGTAGTG
switch fluorescence ratio: 0.984 ± 0.02

ATGGGTCCTG
switch fluorescence ratio: 0.979 ± 0.048

ATGGGTTACG
switch fluorescence ratio: 1 ± 0.033

ATGGGTTGAG
switch fluorescence ratio: 1.01 ± 0.0072

ATGGGTTTCT
switch fluorescence ratio: 0.989 ± 0.026

ATGGTAACGG
switch fluorescence ratio: 0.965 ± 0.042

ATGGTAATTT
switch fluorescence ratio: 0.977 ± 0.017

ATGGTAGCGC
switch fluorescence ratio: 1 ± 0.039

ATGGTAGTAT
switch fluorescence ratio: 0.986 ± 0.016

ATGGTAGTGC
switch fluorescence ratio: 0.986 ± 0.016

ATGGTATAGG
switch fluorescence ratio: 1.01 ± 0.032

ATGGTATATA
switch fluorescence ratio: 0.982 ± 0.025

ATGGTATGAA
switch fluorescence ratio: 0.979 ± 0.035

ATGGTCGCGC
switch fluorescence ratio: 0.993 ± 0.04

ATGGTCGGGG
switch fluorescence ratio: 0.995 ± 0.042

ATGGTCTTAT
switch fluorescence ratio: 0.997 ± 0.014

ATGGTGAGCG
switch fluorescence ratio: 0.978 ± 0.017

ATGGTGATAG
switch fluorescence ratio: 0.992 ± 0.011

ATGGTGGATT
switch fluorescence ratio: 0.965 ± 0.025

ATGGTGGCCG
switch fluorescence ratio: 0.997 ± 0.026

ATGGTGGGCT
switch fluorescence ratio: 0.9811 ± 0.0032

ATGGTGGGGG
switch fluorescence ratio: 0.995 ± 0.034

ATGGTGTACT
switch fluorescence ratio: 1.012 ± 0.0033

ATGGTGTTCG
switch fluorescence ratio: 0.987 ± 0.019

ATGGTGTTGC
switch fluorescence ratio: 0.964 ± 0.028

ATGGTTAAAG
switch fluorescence ratio: 0.996 ± 0.026

ATGGTTATGC
switch fluorescence ratio: 1.03 ± 0.051

ATGGTTCAAT
switch fluorescence ratio: 0.987 ± 0.029

ATGGTTCACT
switch fluorescence ratio: 1.023 ± 0.0032

ATGGTTCCCT
switch fluorescence ratio: 1.01 ± 0.02

ATGGTTGGGT
switch fluorescence ratio: 0.994 ± 0.012

ATGGTTGTGT
switch fluorescence ratio: 0.983 ± 0.034

ATGGTTTATG
switch fluorescence ratio: 0.9812 ± 0.0077

ATGGTTTGGT
switch fluorescence ratio: 0.997 ± 0.024

ATGGTTTTAA
switch fluorescence ratio: 1.03 ± 0.02

ATGGTTTTAG
switch fluorescence ratio: 0.993 ± 0.033

ATGTAAAAGT
switch fluorescence ratio: 0.986 ± 0.043

ATGTAATAGT
switch fluorescence ratio: 1.014 ± 0.0069

ATGTAATCTA
switch fluorescence ratio: 0.961 ± 0.036

ATGTAATTTG
switch fluorescence ratio: 0.988 ± 0.03

ATGTACTTGG
switch fluorescence ratio: 1.02 ± 0.013

ATGTAGAAAT
switch fluorescence ratio: 1.05 ± 0.039

ATGTAGCATA
switch fluorescence ratio: 1.57 ± 0.082

ATGTAGGCAG
switch fluorescence ratio: 0.961 ± 0.029

ATGTATAGCA
switch fluorescence ratio: 1 ± 0.041

ATGTATGGGC
switch fluorescence ratio: 0.9814 ± 0.0047

ATGTATGTAA
switch fluorescence ratio: 1.01 ± 0.018

ATGTATGTGG
switch fluorescence ratio: 0.987 ± 0.049

ATGTATTATA
switch fluorescence ratio: 1.01 ± 0.013

ATGTCAAGGG
switch fluorescence ratio: 0.9944 ± 0.0085

ATGTCACTTG
switch fluorescence ratio: 1.02 ± 0.018

ATGTCAGATT
switch fluorescence ratio: 1.01 ± 0.037

ATGTCAGGGT
switch fluorescence ratio: 0.9732 ± 0.0086

ATGTCATTGG
switch fluorescence ratio: 1.01 ± 0.024

ATGTCCAAGG
switch fluorescence ratio: 1.005 ± 0.0071

ATGTCCTGTG
switch fluorescence ratio: 1.01 ± 0.028

ATGTCGGCTT
switch fluorescence ratio: 1.03 ± 0.018

ATGTCGGTTT
switch fluorescence ratio: 1.02 ± 0.026

ATGTCGTGGC
switch fluorescence ratio: 1 ± 0.048

ATGTGATAGG
switch fluorescence ratio: 1.01 ± 0.058

ATGTGATAGT
switch fluorescence ratio: 0.98 ± 0.015

ATGTGCCAGT
switch fluorescence ratio: 0.962 ± 0.012

ATGTGCCTGT
switch fluorescence ratio: 0.9799 ± 0.0065

ATGTGCGCAC
switch fluorescence ratio: 1.002 ± 0.0023

ATGTGCTGGG
switch fluorescence ratio: 0.981 ± 0.031

ATGTGCTGGT
switch fluorescence ratio: 0.991 ± 0.021

ATGTGCTTAG
switch fluorescence ratio: 1.04 ± 0.084

ATGTGGACTG
switch fluorescence ratio: 1.05 ± 0.014

ATGTGGCGTC
switch fluorescence ratio: 1.01 ± 0.019

ATGTGGGGAG
switch fluorescence ratio: 0.9941 ± 0.002

ATGTGTAACA
switch fluorescence ratio: 0.97 ± 0.037

ATGTGTATCG
switch fluorescence ratio: 0.969 ± 0.039

ATGTGTATGG
switch fluorescence ratio: 0.998 ± 0.018

ATGTGTCGCG
switch fluorescence ratio: 0.9917 ± 0.0045

ATGTGTGAGG
switch fluorescence ratio: 1.01 ± 0.014

ATGTGTTACA
switch fluorescence ratio: 1.01 ± 0.03

ATGTTAGGCT
switch fluorescence ratio: 0.998 ± 0.025

ATGTTATTG
switch fluorescence ratio: 0.973 ± 0.031

ATGTTCCTAC
switch fluorescence ratio: 1.04 ± 0.011

ATGTTCGTTA
switch fluorescence ratio: 1.0123 ± 0.00085

ATGTTCTCAA
switch fluorescence ratio: 0.998 ± 0.01

ATGTTCTCCG
switch fluorescence ratio: 1.14 ± 0.035

ATGTTCTCGT
switch fluorescence ratio: 0.995 ± 0.021

ATGTTCTCTG
switch fluorescence ratio: 1.033 ± 0.0091

ATGTTGAAGG
switch fluorescence ratio: 1.03 ± 0.069

ATGTTGGGTA
switch fluorescence ratio: 0.982 ± 0.019

ATGTTGGGTG
switch fluorescence ratio: 1.02 ± 0.045

ATGTTGGTTT
switch fluorescence ratio: 0.996 ± 0.021

ATGTTGTATT
switch fluorescence ratio: 1.01 ± 0.052

ATGTTGTGCT
switch fluorescence ratio: 0.984 ± 0.045

ATGTTGTTTG
switch fluorescence ratio: 0.979 ± 0.014

ATGTTTATGA
switch fluorescence ratio: 0.981 ± 0.031

ATGTTTGAAG
switch fluorescence ratio: 0.9844 ± 0.0042

ATGTTTGATG
switch fluorescence ratio: 0.998 ± 0.024

ATGTTTGCCT
switch fluorescence ratio: 1.002 ± 0.0087

ATGTTTGGAG
switch fluorescence ratio: 0.982 ± 0.018

ATGTTTGGGC
switch fluorescence ratio: 0.9597 ± 0.0085

ATGTTTTATC
switch fluorescence ratio: 0.994 ± 0.016

ATGTTTTCGG
switch fluorescence ratio: 0.99 ± 0.044

ATTAAAAAAA
switch fluorescence ratio: 1.11 ± 0.18

ATTAAAAAAC
switch fluorescence ratio: 1.01 ± 0.016

ATTAAAATAT
switch fluorescence ratio: 1.12 ± 0.19

ATTAAACAG
switch fluorescence ratio: 1.05 ± 0.07

ATTAAACCAG
switch fluorescence ratio: 1.1 ± 0.11

ATTAAAGGTT
switch fluorescence ratio: 0.99 ± 0.022

ATTAAAGTAG
switch fluorescence ratio: 1.006 ± 0.0067

ATTAAATCCG
switch fluorescence ratio: 1.042 ± 0.0099

ATTAACGAGG
switch fluorescence ratio: 1.04 ± 0.013

ATTAACTTCG
switch fluorescence ratio: 0.983 ± 0.013

ATTAAGAAGG
switch fluorescence ratio: 1.002 ± 0.0095

ATTAAGGGGA
switch fluorescence ratio: 1.04 ± 0.049

ATTAATCAGT
switch fluorescence ratio: 1.002 ± 0.0083

ATTAATCCAT
switch fluorescence ratio: 0.987 ± 0.019

ATTAATGTGA
switch fluorescence ratio: 1 ± 0.031

ATTAATTGTG
switch fluorescence ratio: 1.01 ± 0.018

ATTACAAAAA
switch fluorescence ratio: 1.01 ± 0.014

ATTACCCGGA
switch fluorescence ratio: 1 ± 0.028

ATTACCGGCG
switch fluorescence ratio: 0.996 ± 0.025

ATTACGGAAA
switch fluorescence ratio: 1.74 ± 0.96

ATTACGGAAC
switch fluorescence ratio: 1.26 ± 0.018

ATTACGGCAC
switch fluorescence ratio: 2.09 ± 0.14

ATTACGGTCT
switch fluorescence ratio: 1.04 ± 0.02

ATTACGGTGG
switch fluorescence ratio: 1 ± 0.045

ATTACTGCAT
switch fluorescence ratio: 1.07 ± 0.059

ATTACTGGTG
switch fluorescence ratio: 1.1 ± 0.019

ATTACTTTTC
switch fluorescence ratio: 1.006 ± 0.0057

ATTAGAAAAG
switch fluorescence ratio: 0.991 ± 0.03

ATTAGACAGC
switch fluorescence ratio: 1.01 ± 0.032

ATTAGGAAAA
switch fluorescence ratio: 1.02 ± 0.025

ATTAGGATGT
switch fluorescence ratio: 0.9948 ± 0.0027

ATTAGGCGTG
switch fluorescence ratio: 0.987 ± 0.01

ATTAGGGAGC
switch fluorescence ratio: 0.989 ± 0.011

ATTAGGGCAT
switch fluorescence ratio: 1.006 ± 0.0075

ATTAGGGCCA
switch fluorescence ratio: 1.007 ± 0.0078

ATTAGGGGCC
switch fluorescence ratio: 0.976 ± 0.018

ATTAGGGGGA
switch fluorescence ratio: 1.03 ± 0.014

ATTAGGTGTT
switch fluorescence ratio: 1.03 ± 0.066

ATTAGTACTT
switch fluorescence ratio: 0.987 ± 0.015

ATTAGTAG
switch fluorescence ratio: 1.022 ± 0.0095

ATTAGTGATA
switch fluorescence ratio: 0.9756 ± 0.0025

ATTAGTTGTG
switch fluorescence ratio: 0.976 ± 0.011

ATTATAACAG
switch fluorescence ratio: 1.038 ± 0.009

ATTATAACTC
switch fluorescence ratio: 0.957 ± 0.036

ATTATACCTT
switch fluorescence ratio: 1.182 ± 0.011

ATTATAGTTG
switch fluorescence ratio: 1.039 ± 0.0094

ATTATATCGG
switch fluorescence ratio: 0.9981 ± 0.0031

ATTATATGGG
switch fluorescence ratio: 1.016 ± 0.0029

ATTATCAGCC
switch fluorescence ratio: 1.022 ± 0.0041

ATTATCGGGA
switch fluorescence ratio: 1.02 ± 0.0017

ATTATCGGTA
switch fluorescence ratio: 0.974 ± 0.058

ATTATCTGGT
switch fluorescence ratio: 1.02 ± 0.043

ATTATGCCTG
switch fluorescence ratio: 1.06 ± 0.044

ATTATGCTAT
switch fluorescence ratio: 1.052 ± 0.0094

ATTATGGTTA
switch fluorescence ratio: 0.9884 ± 0.0097

ATTATGTTCT
switch fluorescence ratio: 1.01 ± 0.013

ATTATTAAAT
switch fluorescence ratio: 1.08 ± 0.18

ATTATTAAGT
switch fluorescence ratio: 0.987 ± 0.025

ATTATTATGC
switch fluorescence ratio: 0.97 ± 0.025

ATTATTTACT
switch fluorescence ratio: 1.018 ± 0.0017

ATTATTTGTC
switch fluorescence ratio: 1.01 ± 0.044
